Data taken from patent US20250179196A1 (Janssen / Centocor, published 2025).
Residue numbers refer to the chain shown, from its start.

T1: human IL-23R expressed on the cell surface of stably transfected iLite and HEK cell lines (human, UniProt Q5VWK5 24-629)
T1 construct: whole, on cells; Same receptor on two transfected cell lines; the cell line is named under assay; also called human IL-23R iLite cells; human IL-23R HEK cells
T1 sequence (looked up): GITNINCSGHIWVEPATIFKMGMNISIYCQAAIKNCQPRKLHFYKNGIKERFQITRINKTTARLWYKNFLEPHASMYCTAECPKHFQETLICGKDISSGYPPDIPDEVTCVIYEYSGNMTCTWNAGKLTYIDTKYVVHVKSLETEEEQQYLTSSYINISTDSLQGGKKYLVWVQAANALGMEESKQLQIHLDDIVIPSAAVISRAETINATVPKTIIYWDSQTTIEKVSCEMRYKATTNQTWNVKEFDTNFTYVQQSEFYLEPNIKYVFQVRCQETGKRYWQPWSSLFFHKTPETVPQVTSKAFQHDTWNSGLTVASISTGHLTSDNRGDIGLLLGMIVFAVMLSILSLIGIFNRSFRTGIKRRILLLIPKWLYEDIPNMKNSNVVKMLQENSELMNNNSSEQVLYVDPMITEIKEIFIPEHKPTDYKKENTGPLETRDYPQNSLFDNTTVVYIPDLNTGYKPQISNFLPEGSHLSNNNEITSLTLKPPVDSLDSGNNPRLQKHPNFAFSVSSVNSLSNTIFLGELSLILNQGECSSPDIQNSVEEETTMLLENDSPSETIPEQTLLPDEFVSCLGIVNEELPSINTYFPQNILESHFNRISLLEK

B1: I23RB32 (antibody, mouse IgG2a, kappa, V domains shown)
VH: EFQLQQSGPELVKPGASVKLSCKASGYTFTDYALHWVKQSPGQGLEWIGWIYPGGGNTYYNDKFKGKATMTADKSSSTAYMQLSSLTSEDSAVYFCARGRLRRDYPMDYWGQGTSVTVSS
VL: DIVMTQSPSSLTVTAGEKVTMSCKSSQSLLNSGNQKNYLTWYQQKPGQPPKLLIYWASTRESGVPDRFTGSGSGTDFTLTISSVQAEDLAVYYCQNDYTYPLTFGSGTKLEIKR
notes: immunization; mouse IgG2a/kappa
B2: I23RB268 (antibody, mouse IgG2a, kappa, V domains shown)
VH: QVQLVQSGAEVKKPGSSVKVSCKASGGTFSSYYIHWVRQAPGQGLEWMGGIIPIFGYANYAQKFQGRVTITADESTSTAYMELSSLRSEDTAVYYCARDPGSYGSVYYRRSYYFDYWGQGTLVTVSS
VL: EIVLTQSPATLSLSPGERATLSCRASQSVSSYLAWYQQKPGQAPRLLIYDASNRATGIPARFSGSGSGTDFTLTISSLEPEDFAVYYCQQRSNWPLTFGQGTKVEIKR
notes: phage display; human V, mouse IgG2a/kappa
B3: I23RB270 (antibody, mouse IgG2a, kappa, V domains shown)
VH: QVQLVQSGAEVKKPGSSVKVSCKASGGTFDSYAISWVRQAPGQGLEWMGGIIPISGYANYAQKFQGRVTITADESTSTAYMELSSLRSEDTAVYYCARDLSGGYLGLRTLYYYYFDYWGQGTLVTVSS
VL: B2 VL
notes: as for B2
B4: I23RB269 (antibody, mouse IgG2a, kappa, V domains shown)
VH: QVQLVQSGAEVKKPGSSVKVSCKASGGTFSDASISWVRQAPGQGLEWMGTIIPISGNANYAQKFQGRVTITADESTSTAYMELSSLRSEDTAVYYCARDRYVWYYWDGYFDYWGQGTLVTVSS
VL: not shown
notes: as for B2
B5: I23RB33 (antibody, mouse IgG2a, kappa, V domains shown)
VH: EVQLQQSGAELVKPGASVKLSCTASGFNIRDIYIHWVKQRPEQGLEWIGRIDPANGHSIYAAKFQGKATITADTSLNIAYMQLSSLTSGDTAVYYCARGSDNDYGRVLAYWGLGTSVTVSS
VL: DIVLTQSPAIMSASPGEKVTMTCRASSSVRSSYLHWYQQKSGASPKLWIYSTSNLASGVPARFSGSGSGTSYSLTITSVEAEDAATYYCQQYTGNPIFTFGSGTKLELKR
notes: as for B1
B6: I23RB47 (antibody, mouse IgG2a, kappa, V domains shown)
VH: QVQLKESGPGLVAPSQSLSITCTVSGFSLTNYDIHWVRQSPGKGLEWLGVIWSDGRTDYKGAFISRLSISKDNSKSQVFFKMNSLQADDTAIYYCARNNYYRYGRNTMDYWGQGTSVTVSS
VL: DIVLTQSPASQSASLGESVTITCLASQTIGSWLAWYQQKPGKSPQLLIYAATRLADGVPSRFSGSGSGTKFSFKISSLQAEDFVFYYCHQLYSIPLTFGGGTKLEMKR
notes: as for B1
B7: I23RB76 (antibody, mouse IgG2a, kappa, V domains shown)
VH: EVQLQQSGPELVKPGASVKMSCKASGYTFTDYYMNWMKQSHGKSLEWIGYISPKNGRTGYNQKFKGKATLTVDKSSTTAYMELRSLTSEDSAVYYCAKSNGYYALDYWGQGTTVTVSS
VL: DIVLTQSPATLCVTPGETVSLSCRASQNIYKNLHWFQQKSHRSPRLLIKYASDSISGIPSRFTGSGSGTDYTLSINSVKPEDEGIYYCLQGYSTPWTFGGGTKLEIKR
notes: as for B1
B8: I23RB92 (antibody, mouse IgG2a, kappa, V domains shown)
VH: EVQLQQSGPEVVKPGASVKISCKASGYTFTDHTMDWVKQSHGKNLEWIGYIYPKSGGTGYNQKFKNKATLTVDKSSSTAYMEFHSLTSDDSAVYYCARWGLRRDGFVYWGQGTLVTVSA
VL: DIKMTQSPASLAVSLGQRATISCRASQSVSTSKYDYIHWYQQKSGQPPRLLIKYASNLESGVPARFSGSGSGTDFTLNIHPVEEEDTATYYCQHTWEIPYTFGSGTKLELKR
notes: as for B1
B9: I23RB65 (antibody, mouse IgG2a, kappa, V domains shown)
VH: EVQLQQSGPELVKPGASVKISCKASGYTFTDHTMDWVKQSHGKSLEWIGYIYPKSGNAAYSQKFKSEATLTVDKSSSTAYMEFHSLTSEDSAVYYCARWGLRRDGFTYWGQGTSVTVSS
VL: B8 VL with D1Q, K3V, M4L, K33S, D35N, S44P, R49K, E85D, L110I
notes: as for B1
B10: I23RB159 (antibody, mouse IgG2a, kappa, V domains shown)
VH: EVQLQQSGGGLVKPGGSLKLSCAASGFTFSDYGMAWVRQTPRKGPEWIAFISNLAYSVYYSDTVTGRFTISRENAKNTLYLEMSSLRSEDTAMYYCARHGDYRNYGFAYWGLGTTVTVSS
VL: DIVMTQTTSSLSASLGDRVTISCRASQDISNYLNWYQQKPDGTVKLLIYYTSRLHSGVPSRFSGSGSGTDYSLTISNLEQEDIATYFCQQGNTLPWTFGAGTKLELKR
notes: as for B1
B11: I23RB93 (antibody, mouse IgG2a, kappa, V domains shown)
VH: QVQLKESGPGLVQPSQSLSITCTVSGFSLTSYGVHWVRQSPGKGLEWLGVIWSGVSTDYNAAFISRLSISKDNSKSQVFFKMNSLQADDTAIYYCARSRGSYYFDYWGQGTTLTVSS
VL: DIKMTQSPATLSVTPGDSVSLFCRASQSISNNLHWYQQKSHESPRLLIKYASQSISGIPSRFSGSGSGTDFTLSINSVETEDFGMYFCQQSNSWPLTFGGGTKLEIKR
notes: as for B1
B12: I23RB86 (antibody, mouse IgG2a, kappa, V domains shown)
VH: EVQLQQSGAELVKPGASVKLSCKASGYTFTSYWLHWVKQRPGQGLEWIGEIDPSDSYTYYNQKFKGKATLTVDKSSSTAYMQLSSLTSEDSAVYYCARSPYDYDWGAYWGQGTSVTVSS
VL: DIVMTQSPSSMSVSLGDTVSITCHASQGISSNIGWLQQKPGKSFKGLIYHGTNLEDEVPSRFSGSGSGADYSLTIGSLESEDFADYYCVQYAQFPWTFGAGTKLEMKR
notes: as for B1
B13: I23RB94 (antibody, mouse IgG2a, kappa, V domains shown)
VH: DVQLQESGPELKKPGETVKISCKASGYTFTNYGMNWVRQAPGKSLKWMGWINTNTGEPAYAEEFKGRFAFSLETSASTAYLQINNLKNEDMATYFCARVRQTARATRGYFDVWGTGTTVTVSS
VL: DIVMTQSHKFMSTSVGDRVSITCKASQDVNTAVAWYQQKPGQSPKLLIYSAFYRYPGVPDRFTGSGSGTDFTFTINSVQAEDLAVYCCQQHYTSPLTFGDGTRLEIKR
notes: as for B1
B14: I23RB98 (antibody, mouse IgG2a, kappa, V domains shown)
VH: EFQLQQSGPELVKPGASVKMSCKASGYTFTNYYMHWVKQSHGKTIEWIGYIYPNSGDTSYNQKFKGKATLTVDKSSSTAYMELRSLTSEDSAVYTCARFGGFYDAMDYWGQGTTVTVSS
VL: DIVLTQSPAIMSASLGERVTMTCTASSSVSSSYLHWYQQKPGSSPKLWIYSTSNLASGVPARFSGSGSGTSYSLTISSMEAEDAATYYCHQYHRSPFTFGSGTKLEMKR
notes: as for B1
B15: I23RB57 (antibody, mouse IgG2a, kappa, V domains shown)
VH: B14 VH with T95N, T114S
VL: B14 VL with L4M, M107I
notes: as for B1
B16: I23RB259 (antibody, mouse IgG2a, kappa, V domains shown)
VH: QVQLVQSGAEVKKPGSSVKVSCKASGGTFSSYGISWVRQAPGQGLEWMGWISPIFGTTNYAQKFQGRVTITADESTSTAYMELSSLRSEDTAVYYCARMMMQSLDYWGQGTLVTVSS
VL: not shown
notes: as for B2

Legend:
[1] = biological target: T1, human IL-23R expressed on the cell …; assay: flow cytometry on human IL-23R HEK cells, Expt D (8-point, 96well)
Experimental: HEK-IL-23R cell concentration response mAb binding (8-point, 96-well assay). […] HEK-IL-23R and HEK-parental cells (12.5 μL of each, 120000 cells total) were plated in 2× replicate on 96-well V-bottom plates (Corning, Cat #3357) into 37° C. warmed Assay medium containing serially diluted IL-23R mAbs to a final volume of 150 μL. IL-23R mAbs were allowed to bind to cells for 30 minutes, at 37° C. […] Cells were next washed twice in ice-cold stain buffer, then resuspended in a final volume of 30 μL with Sytox Green viability dye (ThermoFisher, Cat #S7020). Plates were kept on ice until run for analysis on the iQue. All washes were performed by centrifugation (800 rcf, 3 minutes) followed by flick decantation to remove supernatants. Cell-binding to HEK-IL-23R cells was measured with FlowJo, by gating for single, viable cells and determining the geometric mean fluorescence intensity (MFI) for the 647 detection antibody. Geometric mean fluorescence intensities were plotted over log mAb concentrations fitted with a dose response curve with variable slope using GraphPad Prism.

[2] = biological target: T1, human IL-23R expressed on the cell …; assay: flow cytometry on human IL-23R HEK cells, Expt E (11-point, 384well)
Experimental: HEK-IL-23R cell concentration response mAb binding (11-point, 384-well assay). […] IL-23R mAbs were allowed to bind to cells for 30 minutes, at 37° C. […] Cells were next washed twice in ice-cold stain buffer, then resuspended in a final volume of 10 μL with Sytox Green viability dye (ThermoFisher, Cat #S7020). Plates were kept on ice until run for analysis on the iQue. All washes were performed by centrifugation (800 rcf, 3 minutes) followed by automated aspiration to remove supernatants with plate washers. Cell-binding to HEK-IL-23R cells was measured with FlowJo, by gating for single, viable cells and determining the geometric mean fluorescence intensity (MFI) for the 647 detection antibody. Geometric mean fluorescence intensities were plotted over log mAb concentrations fitted with a dose response curve with variable slope using GraphPad Prism.

Binder | EC50 [1] | EC50 [2] | MFI (6.4 nM) [2]
B1 | 0.4 nM | 5.1 nM | 292000 MFI
B2 | 20.6 nM | 38.2 nM | 51900 MFI
B3 | 0.5 nM | 7.2 nM | 243000 MFI
B4 | 0.6 nM | 14.7 nM | 96800 MFI
B5 | 0.2 nM | 5.6 nM | 306000 MFI
B6 | 0.2 nM | 4.1 nM | 364000 MFI
B7 | 0.4 nM | 11.9 nM | 322000 MFI
B8 | 0.2 nM | 4 nM | 376000 MFI
B9 | 0.3 nM | 4 nM | 275000 MFI
B10 | > 50 nM |  | 
B11 | 0.5 nM | 8.9 nM | 193000 MFI
B12 | 1.2 nM | 22.8 nM | 164000 MFI
B13 | 0.1 nM | 2.8 nM | 364000 MFI
B14 | 1.9 nM | 28.7 nM | 59400 MFI
B15 | 5 nM | > 50 nM | 99600 MFI
B16 | 29.7 nM | > 50 nM | 30900 MFI
